Measured values reported in article PMC6068260, “Functional Analysis of a Carboxylesterase Gene Associated With Isoprocarb and Cyhalothrin Resistance in Rhopalosiphum padi (L.)” (Frontiers in Physiology, 2018).

Substrate: CC(=O)Oc1cccc2ccccc12
Test: purified protein
Assay type: biochemical, Rhopalosiphum padi
Details: Tris-HCl buffer, 3 mM Fast Blue RR salt, 5 min

B1: RpCarE (Rhopalosiphum padi) (protein)
chain: MEVVIEQGVLKGVQNKTLLSNKPYVSFLGIPYAKPPVNDLRFKPPVKHPGWSGILKAISERDRCMQYAFVANDIIGSEDCLYLNVLVPQNGLNEKLAVMIFIHGGAFNYGCGSVNEQSPDYLLDENVIVITLNYRLNALGFLNLDIDECPGNMGLKDQLFAIKWIKANIAAFGGDVNNITIFGESAGSVSVHYHTMSPQSTGLFQKAIMQSGCAFNPWALNENHRVAAFKLAKNLGCLSSDPNEIVKYLRNVSAIDLVKETKFKDDNGFLDYKFVPSIESDMVSDRFLPAHPKTLATIASPVPVIVGLNSMEGIIALSEYRLSKFSDLQITDEISKLFNNQYSTEVISKIKDFYFNKCNNNCEIAKLENICHLHSDVFFVKDFYRGFDHFLKQNVTPVYIYEFKFDGELNAIKNWIFATRPVLRHALKGACHADEIYYLFRNNLSGVVPKPNSPELEMCKAMGKMWSNFAKTGDPNSLDLSFKWNYASASDTKYLSIDGDRTQMTQGMINNNRSRFWKDLIKESIV
notes: pET-28a His6-tag fusion (tag kept), E. coli BL21(DE3); catalytic triad S185-E312-H432
**Q.** With B1 as the protein, how does the Km read?
**A.** Its Km is 42.98 ± 6.73 µM.

**Q.** And the kcat?
**A.** The kcat was 5.50 ± 0.28 s⁻¹.

**Q.** And the kcat/Km?
**A.** Its kcat/Km is 130000 M⁻¹ s⁻¹.
